Measurements taken from US20220396632A1 (VERSEAU THERAPEUTICS, published 2022).
Non-standard residues stand in square brackets, D forms with d. No end group written: not given here. *: point of attachment. Biotin = O=C1N[C@H]2[C@H](CS[C@H]2CCCCC(=O)*)N1; sY = N[C@@H](Cc1ccc(OS(=O)(=O)O)cc1)C(=O)O

T1: SulfoTyr C4 peptide (not fully specified; Y4, Y7 and Y9 sulfated (SO3); C-terminal biotin)
T1 construct: also called C4 alpha chain peptide; human sulfotyrosinylated C4 peptide
T1 peptide: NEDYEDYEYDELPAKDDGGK

T2: Sulfotyrosine D6 biotin peptide (human)
T2 construct: also called D6 peptide
T2 peptide: ENSSFY[sY][sY]D[sY]LDEVAFGGK(Biotin)

T3: Sulfotyr fibrinogen γ peptide (not fully specified; Y8 and Y12 sulfated (SO3); C-terminal biotin)
T3 construct: also called Fibrinogen gamma peptide; human sulfotyrosinylated fibrinogen peptide
T3 peptide: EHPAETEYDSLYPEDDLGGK

T4: SulfoCCK biotin peptide (human)
T4 construct: also called sulfotyrosine CCK peptide
T4 peptide: SHRISDRD[sY]MGWMDFGGK(Biotin)

T5: Human fibrinogen protein (ThermoFisher, RP-43142) (human, UniProt P02671 20-629; P02675 31-491; P02679 27-453, limits assumed, natural sulfotyrosines)
T5 construct: mature; Native dimer with 3 pairs of non-identical chains; also called gamma-fibrinogen; γ fibrinogen protein
T5 sequence (looked up) 1: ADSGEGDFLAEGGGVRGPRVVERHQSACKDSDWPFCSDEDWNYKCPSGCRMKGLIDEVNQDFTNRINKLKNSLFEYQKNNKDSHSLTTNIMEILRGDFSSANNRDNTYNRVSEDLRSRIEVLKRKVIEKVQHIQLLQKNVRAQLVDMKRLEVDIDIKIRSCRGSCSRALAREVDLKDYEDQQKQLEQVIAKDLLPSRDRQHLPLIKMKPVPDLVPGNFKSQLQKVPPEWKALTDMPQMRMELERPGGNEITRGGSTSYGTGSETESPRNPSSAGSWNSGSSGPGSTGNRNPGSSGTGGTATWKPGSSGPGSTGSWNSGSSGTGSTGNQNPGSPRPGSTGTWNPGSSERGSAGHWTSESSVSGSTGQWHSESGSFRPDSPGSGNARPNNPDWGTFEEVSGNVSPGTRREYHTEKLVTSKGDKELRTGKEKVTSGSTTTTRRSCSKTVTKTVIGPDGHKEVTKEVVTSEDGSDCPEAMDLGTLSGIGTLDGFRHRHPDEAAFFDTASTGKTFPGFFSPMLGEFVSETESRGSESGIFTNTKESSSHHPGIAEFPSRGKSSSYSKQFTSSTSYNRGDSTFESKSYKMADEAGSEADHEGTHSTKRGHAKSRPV
T5 sequence (looked up) 2: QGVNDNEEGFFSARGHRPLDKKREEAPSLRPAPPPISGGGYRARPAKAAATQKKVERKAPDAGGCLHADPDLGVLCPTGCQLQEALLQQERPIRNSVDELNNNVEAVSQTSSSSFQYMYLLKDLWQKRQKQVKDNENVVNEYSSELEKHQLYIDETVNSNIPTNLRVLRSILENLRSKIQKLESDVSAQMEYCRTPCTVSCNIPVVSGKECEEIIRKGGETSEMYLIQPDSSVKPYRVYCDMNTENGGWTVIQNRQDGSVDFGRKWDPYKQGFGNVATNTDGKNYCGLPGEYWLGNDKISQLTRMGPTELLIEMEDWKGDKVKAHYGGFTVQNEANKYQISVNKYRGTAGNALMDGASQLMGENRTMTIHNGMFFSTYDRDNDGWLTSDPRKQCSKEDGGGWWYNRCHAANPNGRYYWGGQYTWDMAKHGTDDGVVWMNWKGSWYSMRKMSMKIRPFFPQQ
T5 sequence (looked up) 3: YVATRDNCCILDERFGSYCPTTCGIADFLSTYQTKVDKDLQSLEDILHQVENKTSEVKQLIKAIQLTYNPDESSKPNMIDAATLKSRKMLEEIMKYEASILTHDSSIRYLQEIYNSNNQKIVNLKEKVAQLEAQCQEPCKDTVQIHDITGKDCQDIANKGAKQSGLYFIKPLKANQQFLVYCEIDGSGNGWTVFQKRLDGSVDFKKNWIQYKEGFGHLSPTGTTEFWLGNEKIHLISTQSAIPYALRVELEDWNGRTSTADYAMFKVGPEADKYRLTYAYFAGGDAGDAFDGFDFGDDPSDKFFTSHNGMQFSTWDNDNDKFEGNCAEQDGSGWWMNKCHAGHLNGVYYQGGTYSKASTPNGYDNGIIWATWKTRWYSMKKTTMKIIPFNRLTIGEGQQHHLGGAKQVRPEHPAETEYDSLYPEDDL

T6: Sulfotyrosine CCR2b biotin peptide (human)
T6 construct: also called CCR2b peptide
T6 peptide: TTFFD[sY]D[sY]GAPSHGGK(Biotin)

T7: Biotin PSGL-1(42-62) peptide, unmodified (human, C-terminal Lys-biotin)
T7 construct: Residues 42-62 followed by GGGK-biotin; also called WT; wild-type
T7 peptide: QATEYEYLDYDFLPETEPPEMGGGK

T8: Biotin Y46,48,51(SO3) PSGL-1(42-62) peptide (human, sulfotyrosine at Y46, Y48 and Y51; C-terminal Lys-biotin)
T8 construct: also called fully sulfated N-terminal PSGL-1 peptide
T8 peptide: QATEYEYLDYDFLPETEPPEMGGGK

T9: Recombinant human PSGL-1(ECD)-hFc1 (R&D Systems, Cat. 3345-PS) (human, UniProt Q14242 42-305)
T9 construct: Bought; Gln42-Val295 counted on AAC50061; also called PSGL-1-Fc; PSGL-1-hFc1 chimera; not shown: human IgG1 Fc, Pro100-Lys330
T9 sequence: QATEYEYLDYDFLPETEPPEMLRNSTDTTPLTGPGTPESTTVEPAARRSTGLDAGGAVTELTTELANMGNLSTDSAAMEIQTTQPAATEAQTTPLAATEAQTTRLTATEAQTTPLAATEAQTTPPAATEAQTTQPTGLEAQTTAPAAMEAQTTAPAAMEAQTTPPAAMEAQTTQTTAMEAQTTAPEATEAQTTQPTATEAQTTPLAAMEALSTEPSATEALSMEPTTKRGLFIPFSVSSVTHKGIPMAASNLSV

T10: Scrambled Y42,52,63(SO3) PSGL-1(42-62) biotin peptide (sulfotyrosine at peptide positions 1, 11 and 22; C-terminal Lys-biotin)
T10 peptide: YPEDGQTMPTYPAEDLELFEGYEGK


Tests used:
[1] = molecular target: T11, Cynomolgus PSGL-1(ECD)-hFc1 (cynomolgus macaque); experiment: ELISA, 20 nM mAb on plate cyno PSGL-1(ECD)-Fc
T11 construct: also called Cyno PSGL1-Fc; Cyno PSGL-1(ECD)-Fc
Method: Antibody binding to plate-immobilized cyno PSGL-1(ECD) was determined either at one concentration (20 nM) or by generating full antibody binding curves (0.003-200 nM). A typical ELISA was performed by overnight coating at 4° C. with 3 ug/mL/25 ul per well of recombinant cyno PSGL-1(ECD) protein in PBS, pH 7.4, in high binding half-well plates (Corning Cat. #3690). […] Anti-PSGL-1 IgG in assay buffer (blocking buffer containing 0.05% tween 20) was added into test and control wells (20 nM/25 ul/well) and the plate incubated for 45 min at 37° C. […] The plate was incubated for 45 min at 37° C., and mAb bound to plate-immobilized target determined at A450 nm using HRP substrate (3,3′,5,5′-tetramethylbenzidine (TMB)). For each antibody, duplicate values were averaged and assay background subtracted.

SulfoTyr C4 peptide = molecular target: T1, SulfoTyr C4 peptide; experiment: ELISA, 50 nM mAb
Method: (§1) Recombinant PSGL-1-hFc1 chimera protein consisting of PSGL-1's extracellular domain (ECD) served as a positive control. […] Primary antibody was added (25 ul per well) in duplicate at 50 nM in assay buffer (blocking buffer containing 0.05% Tween®20) into test and control (just blocked) wells and the plate incubated for 45 min at 37° C.

[2] = molecular target: T2, Sulfotyrosine D6 biotin peptide; experiment: ELISA, 50 nM mAb
Method: as §1

[3] = molecular target: T12, Human complement C4 protein (Millipore Sigma, Cat. 204886) (human, UniProt P0C0L4 20-675; P0C0L4 680-1446; P0C0L4 1454-1744, limits assumed, natural sulfotyrosines); experiment: ELISA, 50 nM mAb
T12 construct: mature
T12 sequence (P0C0L4 20-675 limits assumed, form in doubt, chain 1 of 3): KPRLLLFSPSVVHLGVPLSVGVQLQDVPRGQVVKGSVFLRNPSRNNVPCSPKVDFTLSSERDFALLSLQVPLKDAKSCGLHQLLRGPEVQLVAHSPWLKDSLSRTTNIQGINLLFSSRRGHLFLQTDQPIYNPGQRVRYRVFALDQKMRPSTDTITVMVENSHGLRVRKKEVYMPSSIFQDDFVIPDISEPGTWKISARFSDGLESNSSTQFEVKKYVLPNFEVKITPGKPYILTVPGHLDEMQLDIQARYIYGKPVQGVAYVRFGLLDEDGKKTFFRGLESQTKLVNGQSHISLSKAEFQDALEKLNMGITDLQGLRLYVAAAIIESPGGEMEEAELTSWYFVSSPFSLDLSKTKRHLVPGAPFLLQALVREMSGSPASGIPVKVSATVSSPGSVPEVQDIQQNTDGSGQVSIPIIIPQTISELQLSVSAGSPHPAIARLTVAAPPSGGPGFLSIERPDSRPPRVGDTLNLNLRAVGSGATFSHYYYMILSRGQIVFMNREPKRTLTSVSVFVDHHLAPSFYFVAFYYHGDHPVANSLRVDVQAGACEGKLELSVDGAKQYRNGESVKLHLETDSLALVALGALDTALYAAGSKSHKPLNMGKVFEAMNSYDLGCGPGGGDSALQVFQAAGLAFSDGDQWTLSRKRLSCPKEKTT
T12 sequence (P0C0L4 680-1446 limits assumed, form in doubt, chain 2 of 3): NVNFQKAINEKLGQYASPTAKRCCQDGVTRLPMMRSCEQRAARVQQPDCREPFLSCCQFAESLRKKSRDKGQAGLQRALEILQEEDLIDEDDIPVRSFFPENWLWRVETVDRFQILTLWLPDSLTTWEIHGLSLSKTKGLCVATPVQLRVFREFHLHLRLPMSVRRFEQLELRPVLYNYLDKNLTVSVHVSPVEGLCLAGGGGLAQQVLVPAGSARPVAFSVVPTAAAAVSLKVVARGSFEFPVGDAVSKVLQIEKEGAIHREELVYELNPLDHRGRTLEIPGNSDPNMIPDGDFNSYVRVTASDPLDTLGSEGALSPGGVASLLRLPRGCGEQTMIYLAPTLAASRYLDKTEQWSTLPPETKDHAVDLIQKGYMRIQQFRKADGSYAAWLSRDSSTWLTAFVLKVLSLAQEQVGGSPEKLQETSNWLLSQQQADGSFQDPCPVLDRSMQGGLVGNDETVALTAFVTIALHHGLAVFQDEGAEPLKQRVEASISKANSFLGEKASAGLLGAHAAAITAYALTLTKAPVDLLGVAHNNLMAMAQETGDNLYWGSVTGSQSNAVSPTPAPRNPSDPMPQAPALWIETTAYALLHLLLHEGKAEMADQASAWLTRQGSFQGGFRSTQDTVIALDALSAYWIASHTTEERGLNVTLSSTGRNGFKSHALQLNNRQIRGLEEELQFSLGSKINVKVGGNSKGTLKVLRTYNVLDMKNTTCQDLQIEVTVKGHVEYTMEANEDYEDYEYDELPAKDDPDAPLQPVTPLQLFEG
T12 sequence (P0C0L4 1454-1744 limits assumed, form in doubt, chain 3 of 3): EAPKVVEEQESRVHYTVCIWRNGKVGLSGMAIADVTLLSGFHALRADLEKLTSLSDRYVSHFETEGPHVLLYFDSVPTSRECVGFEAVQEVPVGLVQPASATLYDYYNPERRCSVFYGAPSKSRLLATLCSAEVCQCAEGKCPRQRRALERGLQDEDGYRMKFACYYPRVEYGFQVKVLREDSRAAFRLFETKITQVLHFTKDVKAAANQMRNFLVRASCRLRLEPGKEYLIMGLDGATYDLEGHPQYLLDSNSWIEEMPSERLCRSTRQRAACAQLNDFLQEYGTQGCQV
Method: as §1

[4] = molecular target: T3, Sulfotyr fibrinogen γ peptide; experiment: ELISA, 50 nM mAb
Method: as §1

SulfoCCK biotin peptide = molecular target: T4, SulfoCCK biotin peptide; experiment: ELISA, 50 nM mAb
Method: as §1

[5] = molecular target: T5, Human fibrinogen protein (ThermoFisher, …); experiment: ELISA, 50 nM mAb
Method: as §1

[6] = molecular target: T6, Sulfotyrosine CCR2b biotin peptide; experiment: ELISA, 50 nM mAb
Method: as §1

[7] = molecular target: T7, Biotin PSGL-1(42-62) peptide, unmodified; experiment: ELISA, immobilized biotin peptide
Method: (§2) A typical ELISA was performed by coating high binding half-well plates (Corning Cat. #3690) with 3 ug/mL/25 ul per well of biotinylated N-terminal PSGL-1 peptides, which incorporated residues 42 to 62 of the protein, in PBS, pH 7.4, overnight at 4° C. The peptide was unmodified or contained sulfated tyrosine at all 3 tyrosine positions (46, 48, and 51) or at one position (tyr51) (Table 7).
(§3) PSGL-1 protein or peptide served as a positive control. […] […] […] For each antibody, duplicate values were averaged and average assay background was subtracted.

[8] = molecular target: T8, Biotin Y46,48,51(SO3) PSGL-1(42-62) …; experiment: ELISA, immobilized biotin peptide
Method: as §2, §3

[9] = molecular target: T9, Recombinant human PSGL-1(ECD)-hFc1 (R&D …); experiment: ELISA, 50 nM mAb
Method: as §1

[10] = molecular target: T10, Scrambled Y42,52,63(SO3) PSGL-1(42-62) …; experiment: ELISA, immobilized biotin peptide
Method: as §2, §3

Row | A450nm [1] [A450 nm] | binding normalized to PSGL-1 (SulfoTyr C4 peptide) | binding normalized to PSGL-1 [2] | binding normalized to PSGL-1 [3] | binding normalized to PSGL-1 [4] | binding normalized to PSGL-1 (SulfoCCK biotin peptide) | binding normalized to PSGL-1 [5] | binding normalized to PSGL-1 [6] | A450nm, 20 nM mAb [7] [A450nm] | A450nm, 20 nM mAb [8] [A450nm] | A450nm [9] [A450nm] | binding result [10] | EC50 [7] [nM] | EC50 [8] [nM] | A450nm, 20 nM mAb [10] [A450nm] | binding result [5] | Binder
1 | 1.81 | 0.24 | 0.82 | 0.87 | 0.16 | 0.87 | 0.8 | 0.08 | 2.45 | 2.73 |  |  |  |  |  |  | 01A04 (antibody, IgG4, V domains shown) VH: EVQLVQSGAEVKKPGASVKVSCKASGYTFTSYYIHWVRQAPGQGLEWMGIIRPSGGSTSYAQKFQGRVTMTRDTSTSTVYMELSSLRSEDTAMYYCARVGVGSFDYWGQGTLVTVSS VL: DIQMTQSPSTLSASVGDRVTITCRASQSVSNWLAWYQQKPGKAPKLLIYKASSLESGVPSRFSGSGSGTEFTLTISSLQPDDFATYYCQWFRTFGPGTKVDIK
2 | 0.31 | 1.14 |  | 1.22 | 1.18 | 1.02 | 0.46 | 1.27 |  | 2.57 | 2.3 | no binding (tested: 20 nM) | ~500 | 0.33 |  |  | 08C10 (antibody, IgG4, V domains shown) VH: not shown VL: LPVLTQPSSLSASPGASASLTCTLRSGLNVGTYRMYWYQQRPGSPPRYLLRYKSNSDKQQGSGVPSRFSGSKDASANAGILLISGLQSEDEADYYCLIWHNSAWVFGGGTKLTVL
3 | 0.68 | 1.08 |  | 1.16 | 1.18 | 0.56 | 0.68 | 0.98 |  | 2.68 | 2.18 |  |  |  |  |  | 10B03 (antibody, IgG4, V domains shown) VH: EVKLLESGGDLVQPGGSLRLSCAASGLTFSNYAMSWVRQAPGKGLEWVSAISGSGDNTYYADSVKGRFTISRDNSKNTLYLQMNSLRADDTAVYFCAKRDSWGQGTLVTVSS VL: QAVLTQPPSASGTPGQRVTISCSGSTSNIGSRDVYWYQHLPGTAPKLVIYRNDQRPSGVPDRFSGSKSGTSASLAISGLRSEDDADYYCAVWDNSLRGRVFGGGTKLTVL

More lines, now with the values behind:

Row | Binder | A450nm [1] [A450 nm] | binding normalized to PSGL-1 (SulfoTyr C4 peptide) | binding normalized to PSGL-1 [2] | binding normalized to PSGL-1 [3] | binding normalized to PSGL-1 [4] | binding normalized to PSGL-1 (SulfoCCK biotin peptide) | binding normalized to PSGL-1 [5] | binding normalized to PSGL-1 [6] | A450nm, 20 nM mAb [7] [A450nm] | A450nm, 20 nM mAb [8] [A450nm] | A450nm [9] [A450nm] | binding result [10] | EC50 [7] [nM] | EC50 [8] [nM] | A450nm, 20 nM mAb [10] [A450nm] | binding result [5]
4 | 03B03 (antibody, IgG4, V domains shown) VH: EVQLVQSGGGLVQPGGSLRLSCAATGFTVSRNYMTWVREAPGKGLEWVAGIYKSGTTSYTESVKGRFTISRDNSKNTLYLEMSRLRAEDTAVYYCAKSTSTWGQGTQVTVSS VL: DIVMTQSPLSLPVTLGQPASISCRASQSPGYSDGNTYLNWFQQRPGQSPRRLIYKVSNRDPGVPDRFSGSGSGTDFTLKISRVEAEDVGVYYCMQATHWPSFGQGTRLEIK | 0.45 | 1 |  | 0.94 | 1.01 | 0.98 | 0.27 | 0.89 | 2.21 | 2.5 |  | no binding (tested: 20 nM) |  |  | 0.04 | 
5 | 03D01 (antibody, IgG4, V domains shown) VH: EVQLVQSGGGLVQPGGSLRLSCAATGFTVSRNYMTWVREAPGKGLEWVAGIYKSGTTSYIESVKGRFTISRDNSKNTLYLEMSRLRAEDTAVYYCAKSTSTWGQGTQVTVSS VL: DVVMTQSPVSLPVTLGQPASISCRSSRNLLYSNGNTYLNWFHQRPGQSPRRLIYKVSNQDSGVPDRFSGSGSGTDFTLKISRVEAEDVGVYYCMQGTHWPTTFGQGTRLEIK | 0.71 | 1.13 |  | 1.07 | 1.17 | 0.94 | -0.2 | 0.94 | 2.52 | 2.67 |  |  |  |  |  | no binding (tested: 50 nM)
